# Data published in publication PMC4693281.
# Assay: competitive inhibition, sperm binding to ZP-coated wells
# Settings: glycan lost; control: ZP3(32–178)/ZP4
row,Protein,other: inhibition of sperm-ZP binding
1,zona pellucida glycoprotein ZP3: ZP3(32–178)N124D (protein) parent chain: MGPCSRLFVCFLLWGSTELCSPQPFWDDETERFRPSKPPAVMVECQEAQLVVTVDKDLFGTGKLIRPADLTLGPDNCEPLASADTDGVVRFAVGLHECGNILQVTDNALVYSTFLLHNPRPAGNLSILRTNRAEVPIECHYPRQGNVSSWAIQPTWVPFRTTVFSEEKLVFSLRLMEENWSAEKMTPTFQLGDRAHLQAQVHTGSHVPLRLFVDHCVASLTPDWSTSPYHTIVDFHGCLVDGLTDASSAFKAPRPRPEILQFTVDVFRFANDSRNMIYITCHLKVTPVDRVPDQLNKACSFSKSSNRWSPVEGPTDICRCCSKGRCGISGRSMRLSHREGRPVPRSRRHVTEEADVTVGPLIFLRKMNDRGVEGPTSSPPLVMLGLGLATVMTLTLAAIVLGLTGRLRAASHPVCPVSASQ,no change
2,zona pellucida glycoprotein ZP3: ZP3(32–178)N146D (protein) parent chain: MGPCSRLFVCFLLWGSTELCSPQPFWDDETERFRPSKPPAVMVECQEAQLVVTVDKDLFGTGKLIRPADLTLGPDNCEPLASADTDGVVRFAVGLHECGNILQVTDNALVYSTFLLHNPRPAGNLSILRTNRAEVPIECHYPRQGNVSSWAIQPTWVPFRTTVFSEEKLVFSLRLMEENWSAEKMTPTFQLGDRAHLQAQVHTGSHVPLRLFVDHCVASLTPDWSTSPYHTIVDFHGCLVDGLTDASSAFKAPRPRPEILQFTVDVFRFANDSRNMIYITCHLKVTPVDRVPDQLNKACSFSKSSNRWSPVEGPTDICRCCSKGRCGISGRSMRLSHREGRPVPRSRRHVTEEADVTVGPLIFLRKMNDRGVEGPTSSPPLVMLGLGLATVMTLTLAAIVLGLTGRLRAASHPVCPVSASQ,decreases
3,"zona pellucida glycoprotein ZP3: ZP3(32–178)N124,146D (protein) parent chain: MGPCSRLFVCFLLWGSTELCSPQPFWDDETERFRPSKPPAVMVECQEAQLVVTVDKDLFGTGKLIRPADLTLGPDNCEPLASADTDGVVRFAVGLHECGNILQVTDNALVYSTFLLHNPRPAGNLSILRTNRAEVPIECHYPRQGNVSSWAIQPTWVPFRTTVFSEEKLVFSLRLMEENWSAEKMTPTFQLGDRAHLQAQVHTGSHVPLRLFVDHCVASLTPDWSTSPYHTIVDFHGCLVDGLTDASSAFKAPRPRPEILQFTVDVFRFANDSRNMIYITCHLKVTPVDRVPDQLNKACSFSKSSNRWSPVEGPTDICRCCSKGRCGISGRSMRLSHREGRPVPRSRRHVTEEADVTVGPLIFLRKMNDRGVEGPTSSPPLVMLGLGLATVMTLTLAAIVLGLTGRLRAASHPVCPVSASQ",decreases
